Measurements published in the supplement of paper PMC7125110.
± gives the standard error. For some of these results: Fewer inactive variants are shown than the library holds.

B1: glmS ribozyme (parent)
chain: AUAAAAGCGCCAGAACUACAGAAAUGUAGUUGACGAGGAGGAGGUUUAUCGAAUUUUCGGCGGAUGCCUCCAAA

Columns and labels:
Details in all cases: with glucosamine-6-phosphate
glucosamine-6-phosphate [1] = variants of: B1; assay: kcat; higher = faster cleavage; RNA array
How it was run: (§1)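 Tiles bearing barcoded ribozyme variants, transcribed in situ by E. coli RNA polymerase on sequenced MiSeq chips, were imaged over ~14 h at 37 °C using a hybridised Cy3 probe. Glucosamine-6-phosphate was supplied at 40 μM to 10 mM in HEPES/KCl/Mg(OAc)2 buffer. kobs came from one- or two-exponential decay fits to normalised per-tile medians, and weighted Michaelis–Menten fits then provided kcat and KM.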

glucosamine-6-phosphate [2] = variants of: B1; assay: self-cleavage kobs at 160 uM GlcN6P; higher = faster cleavage; RNA array
How it was run: as §1

glucosamine-6-phosphate [3] = variants of: B1; assay: self-cleavage kobs at 10000 uM GlcN6P; higher = faster cleavage; RNA array
How it was run: as §1

glucosamine-6-phosphate [4] = variants of: B1; assay: self-cleavage kobs at 40 uM GlcN6P; higher = faster cleavage; RNA array
How it was run: as §1

glucosamine-6-phosphate [5] = variants of: B1; assay: self-cleavage kobs at 640 uM GlcN6P; higher = faster cleavage; RNA array
How it was run: as §1

glucosamine-6-phosphate [6] = variants of: B1; assay: self-cleavage kobs at 2500 uM GlcN6P; higher = faster cleavage; RNA array
How it was run: as §1

glucosamine-6-phosphate [7] = variants of: B1; assay: KM; higher = weaker cofactor use; RNA array
How it was run: as §1

| Variant | kcat (glucosamine-6-phosphate [1]) [s⁻¹] | self-cleavage kobs at 160 uM GlcN6P (glucosamine-6-phosphate [2]) [s⁻¹] | self-cleavage kobs at 10000 uM GlcN6P (glucosamine-6-phosphate [3]) [s⁻¹] | self-cleavage kobs at 40 uM GlcN6P (glucosamine-6-phosphate [4]) [s⁻¹] | self-cleavage kobs at 640 uM GlcN6P (glucosamine-6-phosphate [5]) [s⁻¹] | self-cleavage kobs at 2500 uM GlcN6P (glucosamine-6-phosphate [6]) [s⁻¹] | KM (glucosamine-6-phosphate [7]) [µM] |
| --- | --- | --- | --- | --- | --- | --- | --- |
| C68A C71A | < 1e-05 | < 1e-05 | < 1e-05 |  |  |  |  |
| U57G C68G | 4.47e-05 ± 1.1e-05 | 4.02e-05 ± 1.5e-05 |  | 2.48e-05 ± 1.2e-05 | 4.72e-05 ± 1.4e-05 | 5.88e-05 ± 1.3e-05 |  |
| G59U C67U | 2.54e-05 ± 5.9e-06 |  |  |  |  | 3.07e-05 ± 7.5e-06 |  |
| C70U C71A | 0.000245 ± 1.7e-05 | 5.23e-05 ± 9.7e-06 | 0.000247 ± 3e-05 |  | 0.00013 ± 1.4e-05 | 0.00018 ± 2.3e-05 | 607 ± 110 |
| C70U C71G | 0.000124 ± 1e-05 | 7e-05 ± 1.3e-05 | 0.00012 ± 1.1e-05 |  | 8.39e-05 ± 8.3e-06 | 0.000118 ± 9.3e-06 | 242 ± 98 |
| C58A C68U | 0.000273 ± 5.2e-05 | 3.66e-05 ± 1e-05 | 0.000251 ± 2.3e-05 |  | 6.75e-05 ± 7e-06 | 0.000129 ± 1.2e-05 | 2100 ± 790 |
| A6U C11G |  |  |  |  |  |  | 1370 ± 460 |
| C61G C67G C70G | < 1e-05 |  |  |  |  |  |  |
| A6C G37A G41A A42U |  |  | < 1e-05 | < 1e-05 |  |  |  |
| U56A C58G | 0.000188 ± 1.8e-05 |  | 0.000151 ± 1.7e-05 |  | 4.15e-05 ± 9.1e-06 | 0.000121 ± 1.6e-05 | 1930 ± 470 |
| U56A C58A | 0.00106 ± 0.00052 | 3.2e-05 ± 1.1e-05 | 0.000605 ± 5.6e-05 |  | 0.000101 ± 1.3e-05 | 0.000187 ± 2.3e-05 |  |
| U55C G66U | 0.00114 ± 0.00044 | 0.000202 ± 5.7e-05 | 0.00102 ± 0.00022 | 6.69e-05 ± 1.8e-05 | 0.000297 ± 5.7e-05 | 0.00105 ± 0.00021 |  |
| A6U A39U G40A |  |  |  | < 1e-05 |  |  |  |
| C58A U69C | 0.000112 ± 1.3e-05 | 3.58e-05 ± 1.2e-05 | 0.000107 ± 1.5e-05 |  | 4.91e-05 ± 1e-05 | 9.46e-05 ± 2.2e-05 | 640 ± 220 |
| A6C G7U |  | < 1e-05 | < 1e-05 | < 1e-05 | < 1e-05 | < 1e-05 |  |
| C61A U69G | < 1e-05 |  |  | < 1e-05 |  |  |  |
| A6C G7U G35A C58U G60A |  |  |  | < 1e-05 | < 1e-05 |  |  |
| A6G G40U A48C G62A U65G |  |  | < 1e-05 | < 1e-05 |  |  |  |
| C58U C61G | 3.19e-05 ± 9.4e-06 |  |  |  | 5.03e-05 ± 1.4e-05 | 2.9e-05 ± 1.3e-05 |  |
| G59U U65G | < 1e-05 |  |  |  | < 1e-05 |  |  |
| A6G G51C |  | < 1e-05 |  | < 1e-05 | < 1e-05 | < 1e-05 |  |
| A6U G32C G59A |  |  | < 1e-05 | < 1e-05 |  |  |  |
| U55G U69A | 0.000144 ± 3.5e-05 | 7.03e-05 ± 9.5e-06 | 9.83e-05 ± 1.7e-05 | 4.44e-05 ± 1.1e-05 | 0.00015 ± 1.9e-05 | 0.00021 ± 2.3e-05 |  |

| Variant | kcat (glucosamine-6-phosphate [1]) [s⁻¹] | self-cleavage kobs at 160 uM GlcN6P (glucosamine-6-phosphate [2]) [s⁻¹] | self-cleavage kobs at 10000 uM GlcN6P (glucosamine-6-phosphate [3]) [s⁻¹] | self-cleavage kobs at 40 uM GlcN6P (glucosamine-6-phosphate [4]) [s⁻¹] | self-cleavage kobs at 640 uM GlcN6P (glucosamine-6-phosphate [5]) [s⁻¹] | self-cleavage kobs at 2500 uM GlcN6P (glucosamine-6-phosphate [6]) [s⁻¹] | KM (glucosamine-6-phosphate [7]) [µM] |
| --- | --- | --- | --- | --- | --- | --- | --- |
| A6C C8A |  | < 1e-05 | < 1e-05 | < 1e-05 | < 1e-05 | < 1e-05 |  |
| A6C G40C |  |  |  | < 1e-05 | < 1e-05 | < 1e-05 |  |
| A6U G29A G63U |  |  |  | < 1e-05 |  |  |  |
| A14U G35A |  |  |  |  |  |  | 6.51 ± 1.5 |
| A6C A33G |  |  | < 1e-05 | < 1e-05 | < 1e-05 |  |  |
| A6G G38U U54C |  |  |  | < 1e-05 | < 1e-05 | < 1e-05 |  |
| A6U G13C A15U |  |  | < 1e-05 | < 1e-05 |  |  |  |
| A6G G7C C16A G41U |  |  |  | < 1e-05 |  |  |  |
| G63A C68U | < 1e-05 |  |  | < 1e-05 |  |  |  |
| G59U C68G | 2.57e-05 ± 4.8e-06 |  |  |  |  |  |  |
| G59A G66A | 0.000247 ± 1.9e-05 |  |  |  |  |  |  |
| A6U A39C U47C A64U |  |  |  | < 1e-05 |  |  |  |
| U56A G66C | 0.000237 ± 5.7e-05 |  | 0.000238 ± 4.6e-05 |  | 0.000107 ± 1.6e-05 | 0.000132 ± 3.9e-05 |  |
| A6G A48U G66U U69C |  |  | < 1e-05 | < 1e-05 |  |  |  |
| G62A U69A | 3.46e-05 ± 8.1e-06 |  |  |  |  |  |  |
| G62A U69G | 3.25e-05 ± 8.9e-06 |  |  |  | 3.57e-05 ± 1.7e-05 | 3.47e-05 ± 1.6e-05 |  |
| C58U U65C | < 1e-05 |  |  |  |  | < 1e-05 |  |
| G63U C68A | 1.22e-05 ± 2.6e-06 |  |  |  |  |  |  |
| A6C G29U G32A U57A |  |  | < 1e-05 | < 1e-05 | < 1e-05 |  |  |
| A6C A36C |  | < 1e-05 | < 1e-05 | < 1e-05 |  |  |  |
| A6G G60A U65G |  |  | < 1e-05 | < 1e-05 |  |  |  |
| U69G C70A | 4.72e-05 ± 1.5e-05 | 4.55e-05 ± 1.3e-05 |  |  | 5.13e-05 ± 9.1e-06 | 7.85e-05 ± 1.2e-05 |  |
| A6G G7C |  | < 1e-05 | < 1e-05 | < 1e-05 |  | < 1e-05 |  |
